# From the DeepSol protein solubility set
# Assay: soluble on expression in E. coli; label from the status in PepcDB or PDB records
row,Sequence,soluble on expression in E. coli
1,MSLSANDVNKDHLQTSIKQCENNGNGQEEGLKNPSKSGTTFYVPWEGSENFLSCQSKNGTPIMMVAYQTVLRDPLPGEEENVHLAARLLAGTVVKPGEVFSQNNKIGPYVIARGFKKGPTYIGTKLTTTIGGGVCKMASTLYNVAILSNLPVVERHAHSMPVPYVPYGQDATVSYGNKDLKFKNDTSSPIMIWAQGVDNILYVAFYSSTKPPEVEWHHEMLKLIKADKVYKMSSTLPKGREKLLMEGMDGAIVKSWVTVKNPDGTVIKRDLRKSYYNPMPHVYEKGKEGHHHHHH,soluble
2,MGSDKIHHHHHHMAKKHEPFVIGDVSVAAGTQQSVKLPAAKLYNDTPMDLHVEVFHGTKAGPVLLVCAAIHGDELNGIEICRRLLGRVNAKTLTGTLLIVPIVNVFGFIQQSRYLPDRRDLNRCFPGSAKGALASRLAHLFSSILVKRATHIVDLHTGAIHRDNLPQIRCDTDDEVMLDMANAFGAPVIMSSKAREGSMRGYANSLNIPCILYEAGEALRFSDMSIKSGVNGVINVMRCLSMTKGKIKTKSTSVNASRSYWVRSESDGLVNIKLKLGERVSKGQVLANIVNPLGGEPSPLLAPTDGIIIGNSNIPVTNEGEALFHIAQFSGDEIEIINDNLDDFMQEYA,not soluble
3,SDENNGLLLLELNPPNPWDLQPRSPEELAFGEVQITYLTHACMDLKLGDKRMVFDPWLIGPAFARGWWLLHEPPSDWLERLCQADLIYISHLHSDHLSYPTLKKLAGRRPDIPIYVGNTERPVFWNLNQSGVQLTNINVVPFGIWQQVDKNLRFMILMDGVHPEMDTCIIVEYKGHKILNIVDCTRPNGGRLPMKVALMMSDFAGGASGFPMTFSGGKFTEEWKAQFIKTERKKLLNYKARLVKNLQPRIYCPFAGYFVESHPSDKYIKETNTKNDPNELNNLIKKNSDVITWTPRPGATLDLGRMLKDRTDSKGIIEPPEGTKIYKDSWDFEPYLEILNAALGDEIFLHSSWIKEYFTWAGFKDYNLVVRMIETDEDFNPFPGGYDYLVDFLDLSFPKERPQREHPYEEIHSRVDVIRHVVKNGLLWDELYIGFQTRLQRDPDIYHHLFWNHFQIKLPLTPPNWKSFLMCCEQNGPVILQECKTT,soluble
4,IIGQVDEISTTDLIEEEENAVLITAEGYAKRMSLEEFRVQSRGGVGVIGASVSPGDEIAVFRICNSTDRLLIFTNTGRAFWINAYEIPKMDRTARGTTLKRLIRLENGEKVVSALGVKDF,soluble
5,MRHRGGRGFRGWWLASTILLLVAEKPSHGYELAERLAEFGIEIPGIGHMGNIYRVLADLEESGFLSTEWDTTVSPPRKIYRITPQGKLYLREILRSLEDMKRRIETLEERIKRVLQEE,soluble
6,MGSDKIHHHHHHMSTAVTFFGQHVLNRVSFLRCSKEFIKKSLNHDSTVFIPFIEGEALISPENGDLVQLSNSVKSYKNILSAIVPLYTTLLNTTRSRSDESGINVTFLGLLEGTDSAFNFEWSNISYKGTPYFGLDIRVTESTLFKKVDFEPIFSYPKVTRDHIFKQTNEDASLYSQGKMYLDWLAKYKFCPGCGSPLFPVEAGTKLQCSNENRNVYCNVRDARINNVCFPRTDPTVIIALTNSDYSKCCLARSKKRYGDFVLYSTIAGFMEPSETIEEACIREIWEETGISCKNIDIVRSQPWPYPCSLMIGCLGIVQFNSKNEVINLNHDDELLDAQWFDTTEIIQALDKYAGGYRVPFKNDINLPGSTTIAFQLINHVCENYKNLRKTSSSHL,not soluble
7,MAHHHHHHMFRGRIELIIGPMFAGKTTELMRRVKREIHARRSCFVIKYSKDTRYDEHNVASHDQLMLRAQAAVSQLTEVRDTWKRFDVLAIDEGQFFSDLVDFCNTAADAGKVVMVSALDGDYRRKPFGQICELVPYCEAVDKLTAVCMMCHEQPACFTRRTVNVEQQELIGGADMYIATCRECYSKQQLPSIEEMRTQRMAIKEVEKRYLGLSDKRATASPQTPEKPAGGWCTKAGVATLPTMVKEGAASSGASAGMKSGRGLCEMQAFTTETPKYQRVEPACTASAASSE,soluble
8,MPFCPEEFYCRITQNIESLNNIAKIQHAANTDYLTDLANRRAFFRSAESRIKEYINKKVPYCLAMIDVDFFKKVNDTYGHDSGDQVLKVIALYMRKHFGAGLTARLGGEEFAVLLHGLDADYLHNKLDDFRREIAVSSIPAGDTSISITLSLGVVFDSEDELSKQMNEADNALYAAKENGRNQIVVFGAELDDLEHHHHHH,not soluble
9,MAHHHHHHMLSTNISSNLNNTLVNITGRENKGEWLLYPQSNYEFNIDEKLKNKFIIDKEKCKKRINAYNKNGIRNSVLAIILCHRYEYPHLLLLQHIESQKYYLLNGKYKTWEKPKEVLKKKLQKYINKIKDIHFTPAQINKEQEETVEIGDFLGEWWRTQFNSVFLPYLPAHISRPKEYIRLYQVILSPKCIFHLPPGFTLKAIPLFDLNNCGLAISGLSSILSRFKLHCMVQEQDAEN,not soluble
10,MFRLSALYRYPIKSSAAESLERVALDALGVVGDRRWMAVDTETGRFFTQRLLPQLGRIQARWAAPEVLRLNAPGMSELSLEVPAADANLRGVTVWRDTLQAPDAGDAAADWLTRFLGRPTRLVHIPEARARQVDTGYAEPGQKVHFADGFPLLLIGQASLDDLSQRVGRPLEMLRFRPNLVVEGSAAFAEDGWKRIRIGSVEFVVAKPCSRCILTTLDPATGERNEDREPLTTLKTYREKDGAVLFGQNLIALGQGSLEVGMPVEILD,soluble
11,MGSDKIHHHHHHMKVLLTRPQGRNQAMEEQLSLRDVAYLVTPLLSVVETTEQLNPTHLNNTDNLLFISSNAVDFAAQKLQQQFPTHCRYFAVGQATADSLAQYNINAFTSPEHSQDSEGLLSLAQLQDVDKQSFIIVRGLGGRETLAEQLQLRGANVNYWQVYQRAIPNLDGKAITQQWKSFGIDTIVVTSGEILSNLVELVPKELFAWLRACHIIVPSNRVELQAKAMGLSHISNANGANTQAILASLAL,not soluble
12,MTTLTLAELATITGGELFGDPTALVSAVAPMDKAQLGHVTFLSNPKYSKHLGDCKATVIMVKTSERELCPSNALVVADPYVAFAKVAQALDSTPSPAHGIAPSAVIAEDAKLGHNVSIGANAVIESGVQLGDNVVIGAGCFIGKQARLGDNTKLWANVTIYHKVEIGSDCLIQSGTVIGADGFGYANERGEWIKIPQLGSVRIGDRVEIGACTTIDRGALDDTVIEDNVIIDNQLQIAHNVHIGYGSALAGGTVIAGSTRIGKYCIIGGASVINGHIEIADGVTITGMGMVMRSIEEKGMYSSGIPLQTNKEWRKTAARVHRIDDMHKRLKALEKLLEQSDTVQPDNSQAE,not soluble
13,MGHHHHHHSHPPTAPDRATAVATASRLGPYVLLEPEEGGRAYQALHCPTGTEYTCKVYPVQEALAVLEPYARLPPHKHVARPTEVLAGTQLLYAFFTRTHGDMHSLVRSRHRIPEPEAAVLFRQMATALAHCHQHGLVLRDLKLCRFVFADRERKKLVLENLEDSCVLTGPDDSLWDKHACPAYVGPEILSSRASYSGKAADVWSLGVALFTMLAGHYPFQDSEPVLLFGKIRRGAYALPAGLSAPARCLVRCLLRREPAERLTATGILLHPWLRQDPMPLAPTRSHLWEAAQVVPDGLGLDEARE,not soluble
14,MGHHHHHHSHMVKDIIIASFYKFIPLNDFESLREPILTKMHEIGIKGTIILAHEGVNGGFAGNREQMNVFYDYLRSDSRFADLHFKETYDNKNPFDKAKVKLRKEIVTMGVQKVDPSYNAGTYLSPEEWHQFIQDPNVILLDTRNDYEYELGTFKNAINPDIENFREFPDYVQRNLIDKKDKKIAMFCTGGIRCEKTTAYMKELGFEHVYQLHDGILNYLESIPESESLWEGKCFVFDDRVAVDQKLDRVYPQLPQDYKYEREQK,soluble
15,MGSDKIHHHHHHMTTDGQLAYQQTCDYPIEERQSEQQVIRQYLPLIKRIVSQMRSHCGVMLSLEDMEQIGMMALLESSRRYPGELDNGFISFAGQRIRGAILDELRRQDWRPRPVRQQAHELNDVVRRLSREMGREPSDLEVASALGLSAEDYRERLYSTQAESMKSLDELLLVGEHPVDRGNDVEQLMLKQTLIKVISKLNEREQLILSLYYHHELNLKEIAMALGLTETRICQLHKSAISQLKTILQR,not soluble
16,VRRKVRRLTLAVSALVALFPAVAGCSDSGDNKPGATIPSTPANAEGRHGPFFPQCGGVSDQTVTELTRVTGLVNTAKNSVGCQWLAGGGILGPHFSFSWYRGSPIGRERKTEELSRASVEDINIDGHSGFIAIGNEPSLGDSLCEVGIQFSDDFIEWSVSFSQKPFPLPCDIAKELTRQSIANSK,not soluble
